Here are results for one variant from PMC7395175.

B1: HA-tagged zDHHC5 [murine] / human PLM expressed in HEK-derived FT-293 cells [human] (parent)
chain 1: MPAESGKRFKPSKYVPVSAAAIFLVGATTLFFAFTCPGLSLNVSPAVPIYNAIMFLFVLANFSMATFMDPGIFPRAEEDEDKEDDFRAPLYKTVEIKGIQVRMKWCATCRFYRPPRCSHCSVCDNCVEEFDHHCPWVNNCIGRRNYRYFFLFLLSLTAHIMGVFGFGLLYVLYHIEELSGVRTAVTMAVMCVAGLFFIPVAGLTGFHVVLVARGRTTNEQVTGKFRGGVNPFTNGCCNNVSRVLCSSPAPRYLGRPKKEKTIVIRPPFLRPEVSDGQITVKIMDNGIQGELRRTKSKGSLEITESQSADAEPPPPPKPDLSRYTGLRTHLSLATNEDSSLLGKDSPPTPTMYKYRPGYSSSSTSAAMPHSSSAKLSRGDSLKEPTSIADSSRHPSYRSEPSLEPESFRSPTFGKSFHFDPLSSGSRSSSLKSAQGTGFELGQLQSIRSEGTTSTSYKSLANQTRNGSLSYDSLLTPSDSPDFESVQAGPEPDPPLGYTSPFLSARLAQQREAERHPRLLPTGPPHREPSPVRYDNLSRHIVASLQEREKLLRQSPPLAGREEEPGLGDSGIQSTPGSGHAPRTSSSSDDSKRSPLSKTPLGRPAVPRFGKPDGLRSRGLGSPEPGTTAPYLGRSISYSSQKAPSGVSETEEVALQPLLTPKDEVQLKTTYSKSNGQPKSIGSASPGPGQPPLSSPTRGGVKKVSGVGGTTYEISV
chain 2: ESPKEHDPFTYDYQSLQIGGLVIAGILFILGILIVLSRRCRCKFNQQQRTGEPDEEEGTFRSSIRRLSTRRR

In this test the parent is B1. The experiment in a line: co-immunoprecipitation (HA IP, Western blot quantified). Particulars: with human PLM expressed in HEK-derived FT-293 cells [human]; n = 3; read off a plot. A general note: A western blot detects proteins with antibodies after separation by electrophoresis.
For the variant chain 1 C236A C237A, the response worked out at 0.79 PLM/HA.
